The assay deals with recombinant human CD137-ECD-Fc (APBio Inc.) (human, UniProt Q07011 24-186). Kind of assay: ELISA. Background: In an ELISA, binding on a coated surface is turned into a signal by an enzyme label.
recombinant human CD137-ECD-Fc (APBio Inc.), sequence (Q07011 24-186): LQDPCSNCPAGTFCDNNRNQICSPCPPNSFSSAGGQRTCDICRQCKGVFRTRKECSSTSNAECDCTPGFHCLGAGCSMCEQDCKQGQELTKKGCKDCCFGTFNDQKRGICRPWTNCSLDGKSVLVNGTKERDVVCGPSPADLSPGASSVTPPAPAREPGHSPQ

B1: anti-CD137 antibody clone 54 (antibody, V domains shown)
VH: QVQLVQSGAEVKKPGSTVKVSCKASGGTFSSYAISWVRQAPGQGLEWMGRIIPILGIANYAQKFQGRVTITADKSTSTAYMELSSLRSEDTAVYYCASPPYYDSSGYYPLGAFDIWGQGTMVTVSS
VL: SYELTQPPSVSVSPGQTASITCSGDKLGEKYASWYQQKAGQSPILVIYQDSKRPSGIPERFSGSNSGNTATLTISGLQAGDEADYYCQAWDGSSTYVFGTGTKVTVFG
For B1, the EC50 is 0.184 nM.

B2: anti-CD137 antibody clone 31 (antibody, V domains shown)
VH: not shown
VL: QSALTQPASVSGSPGQSITISCTGTSSDVGAYNFVSWYQQRPGKAPELMIYDVSDRPSGVSNRFSGSKSGNTASLTISGLQTEDEADYYCSSYTSSITRYVFGTGTKVTVLG
Turning to B2, the concentration giving a half-maximal response (EC50) amounted to 0.151 nM.

What is called EC50 is the concentration giving half of the maximal effect.

The values are drawn from patent US20200407456A1 (published 2020).
